Measurements published in patent publication US20040138134A1.
Like-named read-outs stand apart in the source and are kept apart here. Where no end group is shown, it is not given here.

How the values were obtained:
[1] = target: natriuretic peptide receptor on C3H10T1/2 cells; assay: cell-based or functional assay
[2] = target: natriuretic peptide receptor on C3H10T1/2 cells; assay: cell-based or functional assay; remark: listed apart in the source

B1: CNP 5-22 (17-mer, cyclic domain of CNP) (peptide)
chain: CFGLKLDRIGSMSGLGC
modifications: not fully specified (bridges); ends and bridges not checked
% relative binding (cGMP, Biotrak EIA, peptide at 10^-6 M) [1]: 127%
% relative binding (cGMP, Biotrak EIA, peptide at 10^-6 M) [2]: 100%
